Results reported in patent publication US5001064A, “Phosphatidylinositol 4-kinase” (Washington University, priority 1988, dated 1991).

Substrate: Nc1ncnc2c1ncn2[C@@H]1O[C@H](COP(=O)(O)OP(=O)(O)OP(=O)(O)O)[C@@H](O)[C@H]1O
Experiment: PtdIns 4-kinase activity assay: kinetic parameters, specific activity, pH optimum
Type: biochemical, bovine
Conditions: other: purified enzyme, pH 7.4 (Tris-HCl), double-reciprocal plot, 30.0 °C
Method: PtdIns 4-kinase activity was assayed in 60 μl at 30° C. in 20 mM BisTris-HCl (pH 7.0), 10 mM MgCl2, 1.0% Triton X-100, 0.25 mg/ml phosphatidylinositol, and 150 μM ATP (1.25 μCi[-^32 P]ATP), unless otherwise noted. The reaction was terminated by the addition of 12 μl of cold HCl, 120 μl of cold methanol, 150 μl of chloroform, and 40 μl of H2 O. The extracted samples were centrifuged at 12,000 × g for 1 min. and the aqueous layer removed and discarded. When needed, the organic phase was washed with 40 μl of cold methanol and 40 μl of cold 1.0 N HCl, centrifuged at 12,000 × g, and the aqueous layer was removed. The organic phase was then dried under vacuum in a Savant speed-vac, resuspended in 40 μl of chloroform/methanol (2:1), and chromatographed on potassium oxalate-impregnated Silica Gel 60 thin layer chromatography plates (TLC). The solvent system used consisted of chloroform/methanol/ammonium hydroxide/water (51:39.6:3:8.4). […] The reaction product, phosphatidylinositol 4-phosphate, was visualized by autoradiography, and the corresponding area of the TLC plate was scraped and quantitated by Cherenkov counting. […]
In order to optimize the assay of this enzyme, the pH optimum for Ptdlns 4-kinase was determined. […]

B1: PtdIns 4-kinase (Bos taurus) (protein)
chain: MDETSPLVSPERAQPPDYTFPSGSSAHFPQVPGGAVRVAAAAGPVSSPPGSPGHDRERQPLLDRARGAAAQGQTQTVAAQAQALAAQAAAAAHAAQAHRERNEFPEDPEFEAVVRQAELAIERGIFPERIYQGSSGSYFVKDPQGKIIAVFKPKNEEPYGQLNPKWTKWLQKLCCPCCFGRDCLVLNQGYLSEAGASLVDQKLELNIVPRTKVVYLASETFNYSAIDRVKSRGKRLALEKVPKVGQRFNRIGLPPKVGSFQLFVESYKDADYWLRRFEAEPLPENTNRQLLLQFERLVVLDYIIRNTDRGNDNWLIKYDCPMDSSNSRDTDWVVVKEPVIKVAAIDNGLAFPLKHPDSWRAYPFYWAWLPQAKVPFSQEIKDLILPKISDPNFVKDLEEDLYELFKKDPGFDRGQFHKQIAVMRGQILNLTQALKDNKCPLHLVQMPPVIVETARSHQRSSSESYTQSFQSRKPFFSWW
notes: It constitutes the major PtdIns 4-kinase activity of bovine uteri; from tissue; host or cells: bovine uterus (acetone powder, purified over ammonium sulfate, Mono Q, S-Sepharose, Mono Q, Mono P and hydroxylapatite)
Km: 18 µM
